Measured values as given in patent publication US20120045438A1 (Janssen / Centocor, published 2012).
Where “and” joins values, the source holds several entries; their conditions need not be identical. Identical values can stand only once.

B1: Lc3Hc6 (antibody, V domains shown)
VH: QVQLVESGGGVVQPGRSLRLSCAASGFSLSTYGMGVGWVRQAPGKGLEWVAHIWWDDVKRYNPALKSRFTISRDNSKNTLYLQMNSLRAEDTAVYYCARMGSDYDVWFDYWGQGTLVTVSS
VL: AIQLTQSPSSLSASVGDRVTITCRASKSISKYLAWYQQKPGKAPKLLIYSGSTLQSGVPSRFSGSGSGTDFTLTISSLQPEDFATYYCQQHNEYPYTFGGGTKVEIK
B2: Lc7Hc6 (antibody, V domains shown)
VL: DIQLTQSPSSLSASVGDRVTITCRASKSISKYLAWYRQKPGKVPKLLIYSGSTLQSGVPSRFSGSGSGTDFTLTISSLQPEDVATYYGQQHNEYPYTFGQGTKLEIK
VH: QVQLVESGGGVVQPGRSLRLSCAASGFSLSTYGMGVGWVRQAPGKGLEWVAHIWWDDVKRYNPALKSRFTISRDNSKNTLYLQMNSLRAEDTAVYYCARMGSDYDVWFDYWGQGTLVTVSS
B3: mAb Lc-2B03 with Hc2 M34S, M100L (antibody, V domains shown)
VH: QVTLKESGPVLVKPTETLTLTCTVSGFSLSTYGSGVGWIRQPPGKALEWLAHIWWDDVKRYNPALKSRLTISKDTSKSQVVLTMTNMDPVDTATYYCARLGSDYDVWFDYWGQGTLVTVSS
VL: EIVLTQSPATLSLSPGERATLSCRASKSISKYLAWYQQKPGQAPRLLIYSGSTLQSGIPARFSGSGSGTDFTLTISSLEPEDFAVYYCQQHDYPYTFGQGTKLEIK
notes: full-length mAb, made in HEK293 and CHO
B4: Lc7Hc1 (antibody, V domains shown)
VL: DIQLTQSPSSLSASVGDRVTITCRASKSISKYLAWYRQKPGKVPKLLIYSGSTLQSGVPSRFSGSGSGTDFTLTISSLQPEDVATYYGQQHNEYPYTFGQGTKLEIK
VH: QVTLKESGPALVKPTQTLTLTCTFSGFSLSTYGMGVGWIRQPPGKALEWLAHIWWDDVKRYNPALKSRLTISKDTSKNQVVLTMTNMDPVDTATYYCARMGSDYDVWFDYWGQGTLVTVSS
B5: Lc14Hc2 (antibody, V domains shown)
VH: QVTLKESGPVLVKPTETLTLTCTVSGFSLSTYGMGVGWIRQPPGKALEWLAHIWWDDVKRYNPALKSRLTISKDTSKSQVVLTMTNMDPVDTATYYCARMGSDYDVWFDYWGQGTLVTVSS
VL: DIQMTQSPSTLSASVGDRVTITCRASKSISKYLAWYQQKPGKAPKLLIYSGSTLQSGVPSRFSGSGSGTEFTLTISSLQPDDFATYYCQQHNEYPYTFGGGTKVEIK
B6: mAb Lc-2B03 with Hc2 T31S, M34V, M100L (antibody, V domains shown)
VH: QVTLKESGPVLVKPTETLTLTCTVSGFSLSSYGVGVGWIRQPPGKALEWLAHIWWDDVKRYNPALKSRLTISKDTSKSQVVLTMTNMDPVDTATYYCARLGSDYDVWFDYWGQGTLVTVSS
VL: EIVLTQSPATLSLSPGERATLSCRASKSISKYLAWYQQKPGQAPRLLIYSGSTLQSGIPARFSGSGSGTDFTLTISSLEPEDFAVYYCQQHDYPYTFGQGTKLEIK
notes: as for B3
B7: mAb Lc-2B03 with Hc2 T31S, M34S, M100L (antibody, V domains shown)
VH: QVTLKESGPVLVKPTETLTLTCTVSGFSLSSYGSGVGWIRQPPGKALEWLAHIWWDDVKRYNPALKSRLTISKDTSKSQVVLTMTNMDPVDTATYYCARLGSDYDVWFDYWGQGTLVTVSS
VL: EIVLTQSPATLSLSPGERATLSCRASKSISKYLAWYQQKPGQAPRLLIYSGSTLQSGIPARFSGSGSGTDFTLTISSLEPEDFAVYYCQQHDYPYTFGQGTKLEIK
notes: as for B3
B8: Lc2Hc2 (antibody, V domains shown)
VH: QVTLKESGPVLVKPTETLTLTCTVSGFSLSTYGMGVGWIRQPPGKALEWLAHIWWDDVKRYNPALKSRLTISKDTSKSQVVLTMTNMDPVDTATYYCARMGSDYDVWFDYWGQGTLVTVSS
VL: DIQMTQSPSSLSASVGDRVTITCRASKSISKYLAWYQQKPGKAPKLLIYSGSTLQSGVPSRFSGSGSGTDFTLTISSLQPEDFATYYCQQHNEYPYTFGQGTKLEIK
B9: mAb Lc-2B03 with Hc2 M34Q, M100L (antibody, V domains shown)
VH: QVTLKESGPVLVKPTETLTLTCTVSGFSLSTYGQGVGWIRQPPGKALEWLAHIWWDDVKRYNPALKSRLTISKDTSKSQVVLTMTNMDPVDTATYYCARLGSDYDVWFDYWGQGTLVTVSS
VL: EIVLTQSPATLSLSPGERATLSCRASKSISKYLAWYQQKPGQAPRLLIYSGSTLQSGIPARFSGSGSGTDFTLTISSLEPEDFAVYYCQQHDYPYTFGQGTKLEIK
notes: as for B3
B10: Lc3Hc2 (antibody, V domains shown)
VH: QVTLKESGPVLVKPTETLTLTCTVSGFSLSTYGMGVGWIRQPPGKALEWLAHIWWDDVKRYNPALKSRLTISKDTSKSQVVLTMTNMDPVDTATYYCARMGSDYDVWFDYWGQGTLVTVSS
VL: AIQLTQSPSSLSASVGDRVTITCRASKSISKYLAWYQQKPGKAPKLLIYSGSTLQSGVPSRFSGSGSGTDFTLTISSLQPEDFATYYCQQHNEYPYTFGGGTKVEIK
B11: Lc8Hc2 (antibody, V domains shown)
VH: QVTLKESGPVLVKPTETLTLTCTVSGFSLSTYGMGVGWIRQPPGKALEWLAHIWWDDVKRYNPALKSRLTISKDTSKSQVVLTMTNMDPVDTATYYCARMGSDYDVWFDYWGQGTLVTVSS
VL: DIQMTQSPSTLSASVGDRVTITCRASKSISKYLAWYQQKPGKAPKLLIYSGSTLQSGVPSRFSGSGSGTEFTLTISSLQPDDFATYYCQQHNEYPYTFGQGTRLEIK
B12: mAb Lc-2B03 with Hc2 M34E, M100L, V106I (antibody, V domains shown)
VH: QVTLKESGPVLVKPTETLTLTCTVSGFSLSTYGEGVGWIRQPPGKALEWLAHIWWDDVKRYNPALKSRLTISKDTSKSQVVLTMTNMDPVDTATYYCARLGSDYDIWFDYWGQGTLVTVSS
VL: EIVLTQSPATLSLSPGERATLSCRASKSISKYLAWYQQKPGQAPRLLIYSGSTLQSGIPARFSGSGSGTDFTLTISSLEPEDFAVYYCQQHDYPYTFGQGTKLEIK
notes: full-length mAb
B13: mAb Lc-2B03 with Hc2 T31S, M34S, M100L, V106I (antibody, V domains shown)
VH: QVTLKESGPVLVKPTETLTLTCTVSGFSLSSYGSGVGWIRQPPGKALEWLAHIWWDDVKRYNPALKSRLTISKDTSKSQVVLTMTNMDPVDTATYYCARLGSDYDIWFDYWGQGTLVTVSS
VL: EIVLTQSPATLSLSPGERATLSCRASKSISKYLAWYQQKPGQAPRLLIYSGSTLQSGIPARFSGSGSGTDFTLTISSLEPEDFAVYYCQQHDYPYTFGQGTKLEIK
notes: as for B3
B14: mAb Lc-2B03 with Hc2 M34V, M100L, V106I (antibody, V domains shown)
VH: QVTLKESGPVLVKPTETLTLTCTVSGFSLSTYGVGVGWIRQPPGKALEWLAHIWWDDVKRYNPALKSRLTISKDTSKSQVVLTMTNMDPVDTATYYCARLGSDYDIWFDYWGQGTLVTVSS
VL: EIVLTQSPATLSLSPGERATLSCRASKSISKYLAWYQQKPGQAPRLLIYSGSTLQSGIPARFSGSGSGTDFTLTISSLEPEDFAVYYCQQHDYPYTFGQGTKLEIK
notes: full-length mAb
B15: mAb Lc-2B03 with Hc2 M34S, M100L, V106I (antibody, V domains shown)
VH: QVTLKESGPVLVKPTETLTLTCTVSGFSLSTYGSGVGWIRQPPGKALEWLAHIWWDDVKRYNPALKSRLTISKDTSKSQVVLTMTNMDPVDTATYYCARLGSDYDIWFDYWGQGTLVTVSS
VL: EIVLTQSPATLSLSPGERATLSCRASKSISKYLAWYQQKPGQAPRLLIYSGSTLQSGIPARFSGSGSGTDFTLTISSLEPEDFAVYYCQQHDYPYTFGQGTKLEIK
notes: full-length mAb; both are written under this molecule

What was measured:
[1] = target: T1, human IL-13 R130Q variant (R110Q of the mature chain) (human, UniProt P35225 35-146, Biotinylated on amines (NHS-LC-biotin, 4:1) in ELISA, panning and competition assays. The letters are unchanged.); assay: competition ELISA, biotinylated IL-13 R130Q binding to plate-bound IL-13Ra2, crude supernatant
T1 construct: R130Q counts from Met 1 of the signal peptide, R110Q on the mature chain; Bought from Peprotech; also called IL-13 R110Q; b-R130Q

[2] = target: T1, human IL-13 R130Q variant (R110Q of the …); assay: direct binding ELISA, mAb captured by anti-human Fc, biotinylated IL-13 R130Q, crude supernatant;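 note: 100% is the positive control mAb signal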
[3] = target: T1, human IL-13 R130Q variant (R110Q of the …); assay: SPR (Biacore), mAb made in CHO
[4] = target: T1, human IL-13 R130Q variant (R110Q of the …); assay: SPR (Biacore), mAb made in HEK293
[5] = target: T1, human IL-13 R130Q variant (R110Q of the …); assay: SPR (Biacore), purified mAb from HEK293
[6] = target: T2, human wild-type IL-13 (mature chain) (human, UniProt P35225 35-146, Biotinylated on amines (NHS-LC-biotin) in the competition assays. The letters are unchanged.); assay: Luminex competition, inhibition of 500 pg/ml biotinylated wt IL-13 binding to IL-13Ra2
T2 construct: wild type has R at 110; Bought (Peprotech, R&D Systems); also called wt IL-13; IL-13-WT

[7] = target: T2, human wild-type IL-13 (mature chain); assay: cell-based or functional assay

Binder | Percent Inhibition IL-13 R130Q (333 ng/ml) to Ra2 [1] [%] | Percent IL-13 R130Q (30 ng/ml) Binding [2] [%] | Kd [3] [nM] | Kd [4] | Kd [5] [nM] | IC50 [6] [ng/mL] | P-STAT6 EC50 [7] [ng/mL]
B1 | 14 | 26.6 | – | – | – | – | –
B2 | 4 | -0.3 | – | – | – | – | –
B3 | – | – | 0.0184 | 0.0014 nM | – | – | –
B4 | 6 | -1.4 | – | – | – | – | –
B5 | 54 | 91.8 | – | – | 0.256 | – | –
B6 | – | – | 0.0058 | 0.0037 nM | – | 1.75 | 0.59
B7 | – | – | 0.0101 | 0.0123 nM | – | 1.72 | 0.59
B8 | 52 | 84 | – | – | 0.365 | – | –
B9 | – | – | 0.0251 | 0.0243 nM | – | 1.71 | 0.87
B10 | 50 | 85.3 | – | – | 0.246 | – | –
B11 | 55 | 81.1 | – | – | 0.272 | – | –
B12 | – | – | – | 0.0114 nM | – | 2.54 | 1.79
B13 | – | – | 0.0211 | 0.0152 nM | – | 1.68 | 0.65
B14 | – | – | – | 0.0252 nM | – | – | –
B15 | – | – | – | 0.0205 nM and 0.0209 nM | – | 2.25 | 1.1
